B1: MLH1 (parent)
chain: YAHQMVRTDSREQKLDAFLQPLSK
B2: CAMK2D (parent)
chain: LLKHPNIVRLHDSISEEGFHYLVF

Variants of: B1
Test: protein stability index of a GFP-peptide fusion (GPS, HEK-293T) (PSI 1-6); higher = more stable
Conditions: c terminus: a fixed tail appended
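Further: lentivirally expressed fusions sorted by FACS into six bins by GFP to DsRed ratio, PSI derived from sequencing read proportions per bin multiplied by bin number.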

Protein stability index, by site and new letter:
D16: Y 1.57; S 2.1; K 2.63; V 1.66; Q 2.46; A 2.69; I 2.16; C 1.99; W 3.5; N 1.91; L 1.62; G 2.08
S10: R 2.51; W 1.66; T 2.39; N 2.43; Q 2.78
R11: I 2.1; F 2.51; C 2.59; P 2.46; T 3.34; L 1.95; Q 2.84; G 2.78; W 1.33
K14: W 1.86; D 2.46; Y 1.83; E 2.78; A 2.84; V 2.57; I 2.43; L 1.54; F 2; C 2.08; N 2.48
A17: M 2.45; C 2.15; P 2.66; R 2.66; I 2.69; W 2.19; L 1.85; E 2.98; S 2.57; D 3; F 1.88; V 3.02; N 3.19; K 3.29; Q 2.06
P21: I 2.57; Q 2.7; K 2.42; S 3; L 2.16; W 2.4; H 2.57; C 2.2; Y 1.71; T 2.21; N 2.4; V 2.48; D 2.84; M 1.9
L19: H 3.12; P 2.55; N 2.85; W 2.42; R 3.33; D 3.02; I 2.21; G 2.12; K 3.16; T 3.02; V 2.84; Q 3.02; E 3.38
K24: D 3.26; W 2.16; F 1.78; G 2.48; C 2.29; L 1.85; I 1.95; E 3.28
Q20: Y 1.88; I 2.07; M 2.45; F 1.91; V 2.09; L 2.53; W 2.99; R 2.5; E 2.51; D 3.39; C 1.98; H 2.78; A 2.49
F18: G 2.79; L 2.4; Q 3.55; E 3.12; V 3.15; N 3.15; T 3.36; C 3.22; D 3.79; S 3.52; W 1.85; Y 2.27; R 3.17; H 3.29
E12: G 2.2; M 1.87; Y 1.98; F 1.74; N 2.37; T 2.29; L 2; I 1.82; V 2.42; S 2.32; H 2.34; C 2.19; A 2.37; D 3.18; W 1.6; R 2.53; P 2.32
L15: H 2.57; F 2.2; I 2.17; E 3.83; Q 3.77; N 3.28; D 3.25; G 3.28; W 2.37
S23: F 2.4; R 2.45; P 2.18; A 1.99; G 3.24; E 2.86; N 2.42; D 3.41; H 2.01; T 2.43; W 2.27; Q 2.7
L22: G 3.03; M 2.43; A 2.59; S 3.14; H 2.45; K 2.98; T 3.2; C 2.59; N 3.11; P 2.06; E 3.02; D 3.38; F 2.07; I 3.13; R 3.02; Y 2.03
Q13: W 2.18; R 2.78; C 1.54; N 2.48; M 2.06; I 1.94; G 2.32; H 2.04; F 1.72; T 2.7

Variants of: B2
Test: as above
Conditions: c terminus: a fixed tail appended

Protein stability index of substitutions, site by site:
R9: G 1.79; Q 2.17; N 2.7; D 3.18; C 3.88; S 2.58; L 3.22; H 2.1; K 3.39; T 1.68; P 2.45; F 1.26; W 2.69; Y 2.87; E 3.23; M 2.74; A 2.1; V 1.84
L1: M 2.61; D 4.59; I 3.14; H 1.51; C 1.97; N 2.14; F 2.89; P 1.76; K 3.1; E 2.23; Y 1.96; V 2.25; Q 1.77; S 2.13; T 1.62
H4: P 1.67; C 1.66; E 2.6; A 3.37; T 1.84; F 1.88; R 2.6; D 1.77; W 1.44; I 2.28; K 3.21; V 1.58; Y 2.32; L 2.79; Q 1.06; M 3.37; G 2.23; S 1.94
K3: W 2.83; G 2.04; S 1.79; M 1.77; T 1.52; E 2.16; C 3.78; H 1.44; I 2.71; A 2.38; L 3.21; V 1.78; Y 3; D 2.74; N 2.22; R 2.28; P 2.1; F 2.85
V8: W 3.27; R 1.81; Y 2.91; H 1.8; P 2.01; D 2.41; A 2.64; F 1.47; I 1.87; K 2.05; M 2.59; G 2.79; Q 1.94; E 2.17; L 2.21
L10: D 1.74; C 2.11; A 2.84; F 3.99; E 2.5
L2: Y 1.83; A 2.92; D 2.09; E 2.04; I 3.93; C 2.36; G 2.37; W 3.25; T 1.94; V 2.86; P 1.56; Q 1.76; S 1.56; K 3.35; H 1.44; M 1.77; N 3.63
N6: E 3.7; F 2.94; T 3.24; H 2.18; A 2.22; V 3.01; R 2.54; C 2.13; P 2.15; D 1.76; Q 3.46; K 2.36; Y 3.11; I 1.94; S 1.39; W 2.75; L 3.32
P5: H 2.4; L 3.34; K 2.42; Y 1.57; M 1.72; N 2.58; I 3.47; A 2.2; D 1.97; Q 2.6; V 2.56; G 1.76; S 2.59; W 2.57; C 2.29; F 2.26; T 2.59
I7: C 3.93; W 1.07; H 3.65; Q 2.14; D 1.99; M 3.55; R 2.02; L 2.98; A 1.95; T 2.19; P 1.76; E 2.67; K 1.56; N 3.17; S 1.89; F 2.39

From the supplement of paper PMC10567573
